In one assay the target is T1, human MC4 receptor (human, UniProt P32245 1-332).
T1 construct: whole, on cells; Assayed as membranes of BHK cells stably expressing the receptor; also called melanocortin receptor subtype 4; melanocortin receptor 4
Briefly: 125I-NDP-α-MSH displacement, BHK-human MC4 membranes (Assay V).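 Note: Filter-retained radioactivity read by gamma counting, with affinity obtained through non-linear regression fitting of the binding curves.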

A further assay deals with T2, MC1 receptor (UniProt Q01726 1-317, limits assumed).
T2 construct: whole, on cells; also called melanocortin receptor subtype 1; melanocortin receptor 1
Briefly: 125I-NDP-α-MSH displacement, BHK-MC1 membranes (Assay IV).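 Note: membrane incubations stopped by filtration, retained radioactivity counted, Ki fitted by nonlinear regression to binding curves.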

Positions of bridges follow the written chain, without caps; N, C: chain ends. Non-standard residues stand in square brackets, D forms with d. Groups on a side chain read outwards from the residue. Primed or numbered codes have the meaning given here. *: point of attachment. X5 = NH(2-(2-(2-(17-carboxyheptadecanoylamino)ethoxy)ethoxy)ethyl), O=C(O)CCCCCCCCCCCCCCCCC(=O)NCCOCCOCCN*; X6 = (2-(2-(17-carboxyheptadecanoylamino)ethoxy)ethoxy)acetyl, O=C(O)CCCCCCCCCCCCCCCCC(=O)NCCOCCOCC(=O)*; X3 = (2-(2-(15-carboxypentadecanoylamino)ethoxy)ethoxy)acetyl, O=C(O)CCCCCCCCCCCCCCC(=O)NCCOCCOCC(=O)*; biscarboxymethyl = Lys(biscarboxymethyl) = Nepsilon-bis(carboxymethyl)-L-lysine; Palmitoyl(16-(5-tetrazolyl)) = O=C(CCCCCCCCCCCCCCCc1nnn[nH]1)*; biscarboxymethyl(3) = Nepsilon-bis(carboxymethyl) on Lys; Orn = NCCC[C@H](N)C(=O)O; Dab = NCC[C@H](N)C(=O)O; AEEA = NCCOCCOCC(=O)O

T2 sequence (Q01726 whole entry): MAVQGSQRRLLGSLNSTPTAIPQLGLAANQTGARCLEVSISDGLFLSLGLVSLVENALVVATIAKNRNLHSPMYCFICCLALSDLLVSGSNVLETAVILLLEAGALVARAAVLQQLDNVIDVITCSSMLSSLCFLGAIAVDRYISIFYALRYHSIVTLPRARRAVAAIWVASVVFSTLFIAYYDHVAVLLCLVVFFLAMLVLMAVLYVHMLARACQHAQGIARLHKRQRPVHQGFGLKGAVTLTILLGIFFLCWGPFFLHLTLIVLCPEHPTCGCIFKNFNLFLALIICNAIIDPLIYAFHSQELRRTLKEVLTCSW
T1 sequence (P32245 whole entry): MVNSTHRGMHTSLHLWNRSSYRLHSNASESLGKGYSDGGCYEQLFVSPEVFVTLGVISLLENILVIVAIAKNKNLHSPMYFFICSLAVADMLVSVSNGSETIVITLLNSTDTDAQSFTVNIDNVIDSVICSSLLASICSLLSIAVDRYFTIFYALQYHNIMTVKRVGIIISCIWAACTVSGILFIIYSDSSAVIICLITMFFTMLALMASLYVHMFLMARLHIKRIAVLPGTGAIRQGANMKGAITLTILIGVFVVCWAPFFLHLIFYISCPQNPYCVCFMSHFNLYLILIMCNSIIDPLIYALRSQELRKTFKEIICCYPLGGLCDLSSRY
Description for MC1 receptor: The MC1 receptor binding assay was performed on BHK cell membranes stably expressing the MC1 receptor. […] Test compounds were dissolved in DMSO. […] Alternatively, HSA may be substituted with ovalbumin. The samples were incubated at 30° C. for 90 min. in Costar round-bottom microtiter plates. Incubation was terminated by filtration on a Packard harvester filtermate. […] The filters were washed with ice-cold 0.9% NaCl 8-10 times. […] The plates were counted in a Topcounter (1 min/well).
(§1) The data were analysed by non-linear regression analysis of binding curves, using the Windows™ program GraphPad™ Prism (GraphPad Software, USA).
Description for human MC4 receptor: The membranes were prepared from frozen or fresh cells that were homogenized in 20 mM HEPES pH 7.1, 5 mM MgCl₂ and 1 mg/ml bacitracin and centrifuged at 15000 rpm at 4° C., 10 min in a Sorvall RC 5B plus, SS-34 rotor. The supernatant was discarded, and the pellets were re-suspended in buffer, homogenized and centrifuged two more times. The final pellets were resuspended in the buffer mentioned above, and the protein concentration was measured and adjusted with buffer to 14 to 17 mg/ml and the membrane preparation were kept at −80° C. until assay. The assay was run directly on a dilution of this cell membrane suspension, without any further preparation. The BHK cell membranes are kept at −80° C. until assay, and the assay is run directly on a dilution of this cell membrane suspension, without further preparation. The suspension is diluted to give maximally 10% specific binding, i.e. to approx. 50-100 fold dilution. […] Test compounds were dissolved in DMSO and diluted in binding buffer. Radiolabelled ligand and membranes were diluted in binding buffer. The incubation was stopped by dilution with 2×100 μl ice-cold 0.9% NaCl. The radioactivity retained on the filters was counted using a Cobra II auto gamma counter.
as §1

For Ac-[Orn]H[dF]RWDPPREK(biscarboxymethyl)K(X3)-NH2 (lactam 1-6), the Ki with human MC4 receptor is 2.2 nM; in the assay with MC1 receptor it was 2140 nM.

In the case of Ac-[Orn]H[dF]RWDPPREK(biscarboxymethyl)K(X6)-NH2 (lactam 1-6), the Ki was determined as 0.8 nM in the assay with human MC4 receptor and 1940 nM in the assay with MC1 receptor.

Ac-[Dab]H[dF]RWDPSSSK(biscarboxymethyl(3))SS-X5 (lactam 1-6): the figures for the Ki with human MC4 receptor and with MC1 receptor were 10.8 nM and 9130 nM, respectively.

Ac-EH[dF]RW[Orn]PPRDK(biscarboxymethyl)K(X6)-NH2 (lactam 1-6): the Ki was determined as 0.9 nM with human MC4 receptor and 4690 nM with MC1 receptor.

Ac-EH[dF]RW[Orn][dP][dP]RDK(biscarboxymethyl(3))K([AEEA-Palmitoyl(16-(5-tetrazolyl))])-NH2 (lactam 1-6): the Ki in the assay with human MC4 receptor is 4.6 nM; in the assay with MC1 receptor, 8840 nM.

By Ki is commonly meant the equilibrium dissociation constant of an inhibitor or competing ligand from its target. Higher therefore signals lower affinity.
